Assay results reported in the supplement of paper PMC9170038.

These sequences were tested on K4 kissing-loop RNA reporter (assay: apparent KD of K4 kissing-loop reporter; higher = weaker reporter binding). Conditions: Eterna round: R107; input ligand: none.
Protocol: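 RNA-MaP round R107: designed RNA switches with theophylline, tryptophan, arginine or FMN aptamers are transcribed on-chip within common flanks. They are titrated with a labelled K4 kissing-loop RNA reporter in RNA-MaP buffer (100 mM Tris pH 7.5, 80 mM KCl, 4 mM MgCl2), without ligand or with the indicated ligand. Median apparent KD per design.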
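Also: bound reporter read as fluorescence of individual clusters on recovered sequencing chips by microscopy, with normalized cluster intensities fitted with a binding model.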

| Sequence | apparent KD of K4 kissing-loop reporter |
| --- | --- |
| AUUUUUUUGUCAGGAUAUUAGUGUGGGUUUGGUUUGUUAGUGAUGUUGAUAUUUGGUUUAUGUAUUUAAGAAGGGAUUUAGCGGU [frrvemullin] | 408 nM |
| AGUGAUAUAUGAGGAUAUGGGUUUGUUAAUGAGUUAUUUUUAGUGUUGUUUGGUUAGUGAUGUUAUUUAGAAGGCGUGAGUGAUG [rrwswwmjmullin] | 81.9 nM |
| AGAGUUAUGCGAGGAUAUGCGGUUAGUACUCAAAGAGUACUAACGCAGAGUGAUGUUCUGUGAAACACAGAAGGUGCAUAACUCA [Omei KL FMN B SS B v2] | 249 nM |
| AAAUGUUUGUAUUUGAACAAUUUCUUUAGGGAGGAUAUUGGUAAUACAAGAAGGCCCUGAUGGGAGUGAUGUUCCCAUAACGCGG [Exclusion FMN A GF15] | 74 nM |
| AAGACUGCAGGAAGGAGCGGCGGACGGAGUGAUGUUCCGGCUAGUGAUGUUAGCAAACACCGCCAGGUAGGUCGCCUGUUGCUCU [Same State Arginine B GF7] | 126 nM |
| ACGUAGUUCUAGGAUACCAGCCAAGGCGCAGGACAAAAGUCCUGCGUCGCCAGUGAUGUUGGCCCUUGGCAGCCUAGAACUACGA [Omei KL Theo B Exc B v12] | 304 nM |
| UGAUACCAGGCGGCCGCCACUCCUACAGGUCAAAGACCUGUAAAACUGGUUUUUUAGUGAUGUUGGAGGACCGGGCCUGGUAUCU [FiskerMod 28 - Jieux - Exclusion - Tryptophan B] | 178 nM |
| GAAAGGAGUGAUGUUCCUGAUAAUUUUAUGAAGGAUAUUCGAUGUGGAAGAAGGUCAUGCAGGCAGCAAGGUUGCGAUCAUAUCA [theeternabot_exclusion_KL_FMN_A_40] | 143 nM |
| AGACUACCACACUGUCAAUAGACAGUGAACUCGGAUAUGCUGAUAAGCAGAAGGAGUGAUGUUCCCAGGUAGUCAAUAAAAUAAU [FmnAX 13 C32+C66] | 144 nM |

Same assay, conditions: Eterna round: R107; input ligand: theophylline 20 uM

| Sequence | apparent KD of K4 kissing-loop reporter |
| --- | --- |
| AUUGAACAAGUGAUGUUUGUAUUUUCCGAAGGAGCGUCUAAUAAGACAGGUAGGUCGCGGUUUCUCUUAAUAAUCAGGUCUUUAA [JR_Nu_ExcArginiA_Sub021] | 292 nM |
| UGUAAGCGCGUAGAUACCAGCAAACGAGUGAUGUUCAAAAGAUUAAGGAAAAGAAAGUAAUGCCCUUGGCAGCUAAUCAUAAGCG [whbob_Ex_Theo_B_sa91] | 397 nM |
| UCUAGUUCUACGGCCGCCACUAUCGAGCACGGGUAUUAGUGAUGUUGAGGUCGUGUCUCCCUCCCUAGGACCGGGUAGAUCUUAG [theeternabot_sameState_KL_Trp_B_4] | 629 nM |
| AGGGAUGAUGGAUAAAUAAACAAAGGAGAUACCAGUCAAAUAAUAGGCCCUUGGCAGCUUCAGAUCAGUGAUGUUGAAGAUAUUG [#09 K4 Theophylline A Same State] | 148 nM |
| UGUGAACAAAAGUAGAGUGGACCACUAUAGCGAGGACCGGUACGGCCGCCACUCGUAUAUAAAUUCAGUGAUGUUGAAAAGAGCU [Exclusion Tryptophan A GF1] | 260 nM |
| AAUGUAUUCCACAUGAGUGAUGUUCAUGUGCGAGGACCGGUACGGCCGCCACUCGCAGUUGUGAUCAGUUCUGAAUACAUUAAUG [KL-XTryp-A3] | 235 nM |
| AAGGUAUCACCAACAUUGCAAGAAGGUGAUACCAGCAUCGAAAGAUGCCCUUGGCAGCACCAACUUGCAGUGAUGUUGCAAGUAA [(T)'-(H)'-(T1)-(T2)-(H1)-(H2)_Design8] | 213 nM |
| AAUAACUAGUAUAUUUUUAAUAAUACAGAUACCAGUGAUAAUAAACACCCUUGGCAGCUGAUCGAGUGAUGUUCGUUUAUUUUAA [JR_SSTheophyA_Sub002] | 188 nM |
| AUUUUUUUGUCAGGAUAUUAGUGUGGGUUUGGUUUGUUAGUGAUGUUGAUAUUUGGUUUAUGUAUUUAAGAAGGGAUUUAGCGGU [frrvemullin] | 492 nM |
| AGUGAUAUAUGAGGAUAUGGGUUUGUUAAUGAGUUAUUUUUAGUGUUGUUUGGUUAGUGAUGUUAUUUAGAAGGCGUGAGUGAUG [rrwswwmjmullin] | 111 nM |
| AGAGUUAUGCGAGGAUAUGCGGUUAGUACUCAAAGAGUACUAACGCAGAGUGAUGUUCUGUGAAACACAGAAGGUGCAUAACUCA [Omei KL FMN B SS B v2] | 205 nM |
| AAAUGUUUGUAUUUGAACAAUUUCUUUAGGGAGGAUAUUGGUAAUACAAGAAGGCCCUGAUGGGAGUGAUGUUCCCAUAACGCGG [Exclusion FMN A GF15] | 87.5 nM |
| AAGACUGCAGGAAGGAGCGGCGGACGGAGUGAUGUUCCGGCUAGUGAUGUUAGCAAACACCGCCAGGUAGGUCGCCUGUUGCUCU [Same State Arginine B GF7] | 166 nM |
| ACGUAGUUCUAGGAUACCAGCCAAGGCGCAGGACAAAAGUCCUGCGUCGCCAGUGAUGUUGGCCCUUGGCAGCCUAGAACUACGA [Omei KL Theo B Exc B v12] | 364 nM |
| UGAUACCAGGCGGCCGCCACUCCUACAGGUCAAAGACCUGUAAAACUGGUUUUUUAGUGAUGUUGGAGGACCGGGCCUGGUAUCU [FiskerMod 28 - Jieux - Exclusion - Tryptophan B] | 183 nM |
| GAAAGGAGUGAUGUUCCUGAUAAUUUUAUGAAGGAUAUUCGAUGUGGAAGAAGGUCAUGCAGGCAGCAAGGUUGCGAUCAUAUCA [theeternabot_exclusion_KL_FMN_A_40] | 185 nM |
| AGACUACCACACUGUCAAUAGACAGUGAACUCGGAUAUGCUGAUAAGCAGAAGGAGUGAUGUUCCCAGGUAGUCAAUAAAAUAAU [FmnAX 13 C32+C66] | 233 nM |

Same assay, conditions: Eterna round: R107; input ligand: tryptophan 2.4 mM

| Sequence | apparent KD of K4 kissing-loop reporter |
| --- | --- |
| AUUGAACAAGUGAUGUUUGUAUUUUCCGAAGGAGCGUCUAAUAAGACAGGUAGGUCGCGGUUUCUCUUAAUAAUCAGGUCUUUAA [JR_Nu_ExcArginiA_Sub021] | 238 nM |
| UGUAAGCGCGUAGAUACCAGCAAACGAGUGAUGUUCAAAAGAUUAAGGAAAAGAAAGUAAUGCCCUUGGCAGCUAAUCAUAAGCG [whbob_Ex_Theo_B_sa91] | 247 nM |
| UCUAGUUCUACGGCCGCCACUAUCGAGCACGGGUAUUAGUGAUGUUGAGGUCGUGUCUCCCUCCCUAGGACCGGGUAGAUCUUAG [theeternabot_sameState_KL_Trp_B_4] | 557 nM |
| AGGGAUGAUGGAUAAAUAAACAAAGGAGAUACCAGUCAAAUAAUAGGCCCUUGGCAGCUUCAGAUCAGUGAUGUUGAAGAUAUUG [#09 K4 Theophylline A Same State] | 110 nM |
| UGUGAACAAAAGUAGAGUGGACCACUAUAGCGAGGACCGGUACGGCCGCCACUCGUAUAUAAAUUCAGUGAUGUUGAAAAGAGCU [Exclusion Tryptophan A GF1] | 149 nM |
| AAUGUAUUCCACAUGAGUGAUGUUCAUGUGCGAGGACCGGUACGGCCGCCACUCGCAGUUGUGAUCAGUUCUGAAUACAUUAAUG [KL-XTryp-A3] | 331 nM |
| AAGGUAUCACCAACAUUGCAAGAAGGUGAUACCAGCAUCGAAAGAUGCCCUUGGCAGCACCAACUUGCAGUGAUGUUGCAAGUAA [(T)'-(H)'-(T1)-(T2)-(H1)-(H2)_Design8] | 226 nM |
| AAUAACUAGUAUAUUUUUAAUAAUACAGAUACCAGUGAUAAUAAACACCCUUGGCAGCUGAUCGAGUGAUGUUCGUUUAUUUUAA [JR_SSTheophyA_Sub002] | 66.2 nM |
| AUUUUUUUGUCAGGAUAUUAGUGUGGGUUUGGUUUGUUAGUGAUGUUGAUAUUUGGUUUAUGUAUUUAAGAAGGGAUUUAGCGGU [frrvemullin] | 375 nM |
| AGUGAUAUAUGAGGAUAUGGGUUUGUUAAUGAGUUAUUUUUAGUGUUGUUUGGUUAGUGAUGUUAUUUAGAAGGCGUGAGUGAUG [rrwswwmjmullin] | 76.5 nM |
| AGAGUUAUGCGAGGAUAUGCGGUUAGUACUCAAAGAGUACUAACGCAGAGUGAUGUUCUGUGAAACACAGAAGGUGCAUAACUCA [Omei KL FMN B SS B v2] | 148 nM |
| AAAUGUUUGUAUUUGAACAAUUUCUUUAGGGAGGAUAUUGGUAAUACAAGAAGGCCCUGAUGGGAGUGAUGUUCCCAUAACGCGG [Exclusion FMN A GF15] | 62.1 nM |
| AAGACUGCAGGAAGGAGCGGCGGACGGAGUGAUGUUCCGGCUAGUGAUGUUAGCAAACACCGCCAGGUAGGUCGCCUGUUGCUCU [Same State Arginine B GF7] | 128 nM |
| ACGUAGUUCUAGGAUACCAGCCAAGGCGCAGGACAAAAGUCCUGCGUCGCCAGUGAUGUUGGCCCUUGGCAGCCUAGAACUACGA [Omei KL Theo B Exc B v12] | 308 nM |
| UGAUACCAGGCGGCCGCCACUCCUACAGGUCAAAGACCUGUAAAACUGGUUUUUUAGUGAUGUUGGAGGACCGGGCCUGGUAUCU [FiskerMod 28 - Jieux - Exclusion - Tryptophan B] | 177 nM |
| GAAAGGAGUGAUGUUCCUGAUAAUUUUAUGAAGGAUAUUCGAUGUGGAAGAAGGUCAUGCAGGCAGCAAGGUUGCGAUCAUAUCA [theeternabot_exclusion_KL_FMN_A_40] | 128 nM |
| AGACUACCACACUGUCAAUAGACAGUGAACUCGGAUAUGCUGAUAAGCAGAAGGAGUGAUGUUCCCAGGUAGUCAAUAAAAUAAU [FmnAX 13 C32+C66] | 142 nM |
